Article PMC314469, “Protein Interaction Networks by Proteome Peptide Scanning” (PLoS Biology, 2004)
Blank lines part the entries; values can stand above or below the binder they belong to.

Key:
Assay in all cases: SPOT array
[1] = biological target: T1, Rvs167 SH3 (RV167_YEAST), P39743
T1 chain: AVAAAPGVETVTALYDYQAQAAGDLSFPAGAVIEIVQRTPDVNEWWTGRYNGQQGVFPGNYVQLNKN

[2] = biological target: T2, Boi1 SH3 (BOI1_YEAST), P38041
T2 chain: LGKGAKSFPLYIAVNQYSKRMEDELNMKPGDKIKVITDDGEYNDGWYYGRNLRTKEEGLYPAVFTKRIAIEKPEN

[3] = biological target: T3, Yfr024 SH3 (LSB3_YEAST), P43603
T3 chain: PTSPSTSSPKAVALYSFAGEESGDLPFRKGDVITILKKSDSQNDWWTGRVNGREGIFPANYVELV

[4] = biological target: T4, Boi2 SH3 (BOI2_YEAST), P39969
T4 chain: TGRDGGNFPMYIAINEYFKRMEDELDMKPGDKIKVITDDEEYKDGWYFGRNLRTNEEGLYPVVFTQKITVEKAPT

[5] = biological target: T5, Myo5 SH3 (MYO5_YEAST), Q04439
T5 chain: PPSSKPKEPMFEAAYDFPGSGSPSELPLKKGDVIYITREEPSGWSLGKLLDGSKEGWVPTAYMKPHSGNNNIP

[6] = biological target: Sho1 SH3 (SHO1_YEAST), P40073
[7] = biological target: T6, Yhr016c SH3 (YSC84_YEAST), P32793
T6 chain: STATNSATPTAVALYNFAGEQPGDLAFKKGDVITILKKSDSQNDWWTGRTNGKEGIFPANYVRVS

Sequence of Sho1 SH3 (SHO1_YEAST), P40073 (P40073 295-366): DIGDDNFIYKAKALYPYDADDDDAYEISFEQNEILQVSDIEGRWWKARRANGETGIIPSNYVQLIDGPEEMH

normalised SPOT signal, Boehringer light units (BLU); mean over the file's lines of this peptide [1]: 56.3
normalised SPOT signal, Boehringer light units (BLU); mean over the file's lines of this peptide [2]: 948
normalised SPOT signal, Boehringer light units (BLU); mean over the file's lines of this peptide [3]: 4.1
normalised SPOT signal, Boehringer light units (BLU); mean over the file's lines of this peptide [4]: 13.4
normalised SPOT signal, Boehringer light units (BLU); mean over the file's lines of this peptide [5]: 108
normalised SPOT signal, Boehringer light units (BLU); mean over the file's lines of this peptide [6]: 33.3
normalised SPOT signal, Boehringer light units (BLU); mean over the file's lines of this peptide [7]: 63.6
B1: YMR129W 520-533 (peptide)
chain: ALEERFDPKSPTKR

normalised SPOT signal, Boehringer light units (BLU); mean over the file's lines of this peptide [1]: 534
normalised SPOT signal, Boehringer light units (BLU); mean over the file's lines of this peptide [2]: 1420
normalised SPOT signal, Boehringer light units (BLU); mean over the file's lines of this peptide [3]: 1400
normalised SPOT signal, Boehringer light units (BLU); mean over the file's lines of this peptide [4]: 30.5
normalised SPOT signal, Boehringer light units (BLU); mean over the file's lines of this peptide [5]: 304
normalised SPOT signal, Boehringer light units (BLU); mean over the file's lines of this peptide [6]: 208
normalised SPOT signal, Boehringer light units (BLU); mean over the file's lines of this peptide [7]: 559
B2: YLR073C 11-24 (peptide)
chain: AKDYRFNPAIPLRI

normalised SPOT signal, Boehringer light units (BLU); mean over the file's lines of this peptide [1]: 11.8
normalised SPOT signal, Boehringer light units (BLU); mean over the file's lines of this peptide [2]: 78.5
normalised SPOT signal, Boehringer light units (BLU); mean over the file's lines of this peptide [3]: 39.7
normalised SPOT signal, Boehringer light units (BLU); mean over the file's lines of this peptide [4]: 48
normalised SPOT signal, Boehringer light units (BLU); mean over the file's lines of this peptide [5]: 144
normalised SPOT signal, Boehringer light units (BLU); mean over the file's lines of this peptide [6]: 22.1
normalised SPOT signal, Boehringer light units (BLU); mean over the file's lines of this peptide [7]: 7.6
B3: YGR061C 138-151 (peptide)
chain: ALLIKTVPGFPLLE

normalised SPOT signal, Boehringer light units (BLU); mean over the file's lines of this peptide [1]: 34.5
normalised SPOT signal, Boehringer light units (BLU); mean over the file's lines of this peptide [2]: 382
normalised SPOT signal, Boehringer light units (BLU); mean over the file's lines of this peptide [3]: 162
normalised SPOT signal, Boehringer light units (BLU); mean over the file's lines of this peptide [4]: 4.6
normalised SPOT signal, Boehringer light units (BLU); mean over the file's lines of this peptide [5]: 502
normalised SPOT signal, Boehringer light units (BLU); mean over the file's lines of this peptide [6]: 109
normalised SPOT signal, Boehringer light units (BLU); mean over the file's lines of this peptide [7]: 42.3
B4: YLR430W 1004-1017 (peptide)
chain: AKLHRTKPVKPLSK

normalised SPOT signal, Boehringer light units (BLU); mean over the file's lines of this peptide [1]: 48.5
normalised SPOT signal, Boehringer light units (BLU); mean over the file's lines of this peptide [2]: 274
normalised SPOT signal, Boehringer light units (BLU); mean over the file's lines of this peptide [3]: 128
normalised SPOT signal, Boehringer light units (BLU); mean over the file's lines of this peptide [4]: 34.8
normalised SPOT signal, Boehringer light units (BLU); mean over the file's lines of this peptide [5]: 119
normalised SPOT signal, Boehringer light units (BLU); mean over the file's lines of this peptide [6]: 133
normalised SPOT signal, Boehringer light units (BLU); mean over the file's lines of this peptide [7]: 32.7
B5: YHR147C 183-196 (peptide)
chain: AKLRKFHPPEPYKG

normalised SPOT signal, Boehringer light units (BLU); mean over the file's lines of this peptide [1]: 21.2
normalised SPOT signal, Boehringer light units (BLU); mean over the file's lines of this peptide [2]: 62.8
normalised SPOT signal, Boehringer light units (BLU); mean over the file's lines of this peptide [3]: 0
normalised SPOT signal, Boehringer light units (BLU); mean over the file's lines of this peptide [4]: 9
normalised SPOT signal, Boehringer light units (BLU); mean over the file's lines of this peptide [5]: 60.3
normalised SPOT signal, Boehringer light units (BLU); mean over the file's lines of this peptide [6]: 163
normalised SPOT signal, Boehringer light units (BLU); mean over the file's lines of this peptide [7]: 14.3
B6: YKL064W 452-465 (peptide)
chain: AGHIKTHPNSPTPG

normalised SPOT signal, Boehringer light units (BLU); mean over the file's lines of this peptide [1]: 94.4
normalised SPOT signal, Boehringer light units (BLU); mean over the file's lines of this peptide [2]: 1440
normalised SPOT signal, Boehringer light units (BLU); mean over the file's lines of this peptide [3]: 233
normalised SPOT signal, Boehringer light units (BLU); mean over the file's lines of this peptide [4]: 39.1
normalised SPOT signal, Boehringer light units (BLU); mean over the file's lines of this peptide [5]: 195
normalised SPOT signal, Boehringer light units (BLU); mean over the file's lines of this peptide [6]: 63
normalised SPOT signal, Boehringer light units (BLU); mean over the file's lines of this peptide [7]: 45.1
B7: YGL063W 287-300 (peptide)
chain: AGPRKYIPRAPAQG

normalised SPOT signal, Boehringer light units (BLU); mean over the file's lines of this peptide [1]: 14.9
normalised SPOT signal, Boehringer light units (BLU); mean over the file's lines of this peptide [2]: 466
normalised SPOT signal, Boehringer light units (BLU); mean over the file's lines of this peptide [3]: 48.8
normalised SPOT signal, Boehringer light units (BLU); mean over the file's lines of this peptide [4]: 3.3
normalised SPOT signal, Boehringer light units (BLU); mean over the file's lines of this peptide [5]: 176
normalised SPOT signal, Boehringer light units (BLU); mean over the file's lines of this peptide [6]: 18.4
normalised SPOT signal, Boehringer light units (BLU); mean over the file's lines of this peptide [7]: 7
B8: YOR219C 612-625 (peptide)
chain: AISKKLGPDTPIKV

normalised SPOT signal, Boehringer light units (BLU); mean over the file's lines of this peptide [1]: 61.7
normalised SPOT signal, Boehringer light units (BLU); mean over the file's lines of this peptide [2]: 20.7
normalised SPOT signal, Boehringer light units (BLU); mean over the file's lines of this peptide [3]: 87.4
normalised SPOT signal, Boehringer light units (BLU); mean over the file's lines of this peptide [4]: 0
normalised SPOT signal, Boehringer light units (BLU); mean over the file's lines of this peptide [5]: 158
normalised SPOT signal, Boehringer light units (BLU); mean over the file's lines of this peptide [6]: 52.2
normalised SPOT signal, Boehringer light units (BLU); mean over the file's lines of this peptide [7]: 27.3
B9: YLR216C 44-57 (peptide)
chain: AGMAKTKPDVPLSY

normalised SPOT signal, Boehringer light units (BLU); mean over the file's lines of this peptide [1]: 17.9
normalised SPOT signal, Boehringer light units (BLU); mean over the file's lines of this peptide [2]: 106
normalised SPOT signal, Boehringer light units (BLU); mean over the file's lines of this peptide [3]: 0
normalised SPOT signal, Boehringer light units (BLU); mean over the file's lines of this peptide [4]: 0
normalised SPOT signal, Boehringer light units (BLU); mean over the file's lines of this peptide [5]: 133
normalised SPOT signal, Boehringer light units (BLU); mean over the file's lines of this peptide [6]: 26.3
normalised SPOT signal, Boehringer light units (BLU); mean over the file's lines of this peptide [7]: 17.7
B10: YLR291C 296-309 (peptide)
chain: AGLYKLSPLYPFDV

normalised SPOT signal, Boehringer light units (BLU); mean over the file's lines of this peptide [1]: 53
normalised SPOT signal, Boehringer light units (BLU); mean over the file's lines of this peptide [2]: 426
normalised SPOT signal, Boehringer light units (BLU); mean over the file's lines of this peptide [3]: 39.4
normalised SPOT signal, Boehringer light units (BLU); mean over the file's lines of this peptide [4]: 20.2
normalised SPOT signal, Boehringer light units (BLU); mean over the file's lines of this peptide [5]: 164
normalised SPOT signal, Boehringer light units (BLU); mean over the file's lines of this peptide [6]: 32.9
normalised SPOT signal, Boehringer light units (BLU); mean over the file's lines of this peptide [7]: 18.6
B11: YHR094C 277-290 (peptide)
chain: AKVNKSPPDHPYIQ

normalised SPOT signal, Boehringer light units (BLU); mean over the file's lines of this peptide [1]: 16
normalised SPOT signal, Boehringer light units (BLU); mean over the file's lines of this peptide [2]: 54.6
normalised SPOT signal, Boehringer light units (BLU); mean over the file's lines of this peptide [3]: 33.6
normalised SPOT signal, Boehringer light units (BLU); mean over the file's lines of this peptide [4]: 15.6
normalised SPOT signal, Boehringer light units (BLU); mean over the file's lines of this peptide [5]: 248
normalised SPOT signal, Boehringer light units (BLU); mean over the file's lines of this peptide [6]: 25.7
normalised SPOT signal, Boehringer light units (BLU); mean over the file's lines of this peptide [7]: 13.1
B12: YJR158W 273-286 (peptide)
chain: AKIDKVSPEDPWVL

normalised SPOT signal, Boehringer light units (BLU); mean over the file's lines of this peptide [1]: 136
normalised SPOT signal, Boehringer light units (BLU); mean over the file's lines of this peptide [2]: 1420
normalised SPOT signal, Boehringer light units (BLU); mean over the file's lines of this peptide [3]: 97.7
normalised SPOT signal, Boehringer light units (BLU); mean over the file's lines of this peptide [4]: 70.7
normalised SPOT signal, Boehringer light units (BLU); mean over the file's lines of this peptide [5]: 130
normalised SPOT signal, Boehringer light units (BLU); mean over the file's lines of this peptide [6]: 91.3
normalised SPOT signal, Boehringer light units (BLU); mean over the file's lines of this peptide [7]: 30.3
B13: YDL195W 766-779 (peptide)
chain: AKTNKNVPVLPTPG

normalised SPOT signal, Boehringer light units (BLU); mean over the file's lines of this peptide [1]: 102
normalised SPOT signal, Boehringer light units (BLU); mean over the file's lines of this peptide [2]: 33.8
normalised SPOT signal, Boehringer light units (BLU); mean over the file's lines of this peptide [3]: 98.8
normalised SPOT signal, Boehringer light units (BLU); mean over the file's lines of this peptide [4]: 30.4
normalised SPOT signal, Boehringer light units (BLU); mean over the file's lines of this peptide [5]: 101
normalised SPOT signal, Boehringer light units (BLU); mean over the file's lines of this peptide [6]: 23.3
normalised SPOT signal, Boehringer light units (BLU); mean over the file's lines of this peptide [7]: 15.9
B14: YNL093W 69-82 (peptide)
chain: AGQERFAPLAPMYY

normalised SPOT signal, Boehringer light units (BLU); mean over the file's lines of this peptide [1]: 39
normalised SPOT signal, Boehringer light units (BLU); mean over the file's lines of this peptide [2]: 117
normalised SPOT signal, Boehringer light units (BLU); mean over the file's lines of this peptide [3]: 14.9
normalised SPOT signal, Boehringer light units (BLU); mean over the file's lines of this peptide [4]: 12.9
normalised SPOT signal, Boehringer light units (BLU); mean over the file's lines of this peptide [5]: 121
normalised SPOT signal, Boehringer light units (BLU); mean over the file's lines of this peptide [6]: 23.6
normalised SPOT signal, Boehringer light units (BLU); mean over the file's lines of this peptide [7]: 12.2
B15: YDL245C 273-286 (peptide)
chain: AKINKVSPEDPWVL

normalised SPOT signal, Boehringer light units (BLU); mean over the file's lines of this peptide [1]: 159
normalised SPOT signal, Boehringer light units (BLU); mean over the file's lines of this peptide [2]: 571
normalised SPOT signal, Boehringer light units (BLU); mean over the file's lines of this peptide [3]: 142
normalised SPOT signal, Boehringer light units (BLU); mean over the file's lines of this peptide [4]: 24.3
normalised SPOT signal, Boehringer light units (BLU); mean over the file's lines of this peptide [5]: 371
normalised SPOT signal, Boehringer light units (BLU); mean over the file's lines of this peptide [6]: 44.1
normalised SPOT signal, Boehringer light units (BLU); mean over the file's lines of this peptide [7]: 12.5
B16: YLR081W 283-296 (peptide)
chain: AKSNKVSPEDPAVQ
